Assay: Adhesion force of ovalbumin particles to PDMS 40 by centrifugation
Assay type: physicochemical
Description: Ovalbumin particles with an average diameter of 10 μm were attached to a plate with a diameter of 0.5 cm containing a PDMS 40 adhesive layer. Next, the plate was placed in a centrifuge tube. After centrifuging the tube at 27,000 g (Centrifuge, 1730R, LABOGENE, South Korea) for 10 min, the plate was weighed using a high-precision balance (Satorius SE2-F, Gottingen, Germany), and the amount of ovalbumin particles separated from the surface of PDMS 40 during centrifugation was calculated.

B1: ovalbumin particles: Ovalbumin particles with an average diameter of 10 μm attached to a plate containing a PDMS 40 adhesive layer (protein, UniProt P01012 2-386, looked up)
Ovalbumin: GSIGAASMEFCFDVFKELKVHHANENIFYCPIAIMSALAMVYLGAKDSTRTQINKVVRFDKLPGFGDSIEAQCGTSVNVHSSLRDILNQITKPNDVYSFSLASRLYAEERYPILPEYLQCVKELYRGGLEPINFQTAADQARELINSWVESQTNGIIRNVLQPSSVDSQTAMVLVNAIVFKGLWEKAFKDEDTQAMPFRVTEQESKPVQMMYQIGLFRVASMASEKMKILELPFASGTMSMLVLLPDEVSGLEQLESIINFEKLTEWTSSNVMEERKIKVYLPRMKMEEKYNLTSVLMAMGITDVFSSSANLSGISSAESLKISQAVHAAHAEINEAGREVVGSAEAGVDAASVSEEFRADHPFLFCIKHIATNAVLFFGRCVSP
modifications: particles
notes: Ovalbumin particles with an average diameter of 10 μm attached to a plate containing a PDMS 40 adhesive layer
Initial ovalbumin particles remaining on the surface of PDMS 40 (27,000 g for 10 min, pressure 0.2 N/cm^2, average diameter 10 μm): 96% | Vertical adhesion force between ovalbumin particles and PDMS 40 (from centrifugation at 27,000 g): more than 0.2 N/cm^2

Reference: patent US20230218875A1, “PARTICLE-ATTACHED MICRONEEDLE AND METHOD OF MANUFACTURING THE SAME” (QuadMedicine, Inc., priority 2022, published 2023)
